In patent US20080019962A1 (DYAX CORP A MASSACHUSETTS, published 2008):
Changes are numbered by the printed parent chain. Each block holds one binder with its values, some of them ahead of it.

Legend:
Assay in all cases: cell-based or functional assay
MTSP-10 = target: MTSP-10
MTSP-1 = target: T1, MTSP-1 (UniProt Q9Y5Y6 615-855, limits assumed)
T1 sequence (looked up): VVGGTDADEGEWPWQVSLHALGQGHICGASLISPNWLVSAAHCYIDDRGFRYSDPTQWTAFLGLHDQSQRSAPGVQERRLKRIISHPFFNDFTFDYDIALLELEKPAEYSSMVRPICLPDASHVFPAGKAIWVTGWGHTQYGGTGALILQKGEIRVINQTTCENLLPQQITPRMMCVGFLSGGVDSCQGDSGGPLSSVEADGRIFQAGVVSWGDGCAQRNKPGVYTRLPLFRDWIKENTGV

MTSP-7 = target: MTSP-7
MTSP-6 = target: MTSP-6
Trypsinogen-IV = target: T2, Trypsinogen-IV (UniProt P35030 81-304)
T2 sequence (looked up): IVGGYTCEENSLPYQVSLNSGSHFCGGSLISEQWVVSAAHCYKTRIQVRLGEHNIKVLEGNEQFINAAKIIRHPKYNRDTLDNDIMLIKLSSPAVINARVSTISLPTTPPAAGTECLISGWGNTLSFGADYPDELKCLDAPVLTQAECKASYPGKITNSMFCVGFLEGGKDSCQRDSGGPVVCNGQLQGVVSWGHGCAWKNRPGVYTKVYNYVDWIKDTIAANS

Endotheliase-1 (ET1) = target: Endotheliase-1 (ET1)

activity against protease in selectivity screen (enzyme assay) (MTSP-10): < 5%
activity against protease in selectivity screen (enzyme assay) (MTSP-1): < 5%
activity against protease in selectivity screen (enzyme assay) (MTSP-7): < 5%
activity against protease in selectivity screen (enzyme assay) (MTSP-6): < 5%
activity against protease in selectivity screen (enzyme assay) (Trypsinogen-IV): < 5%
activity against protease in selectivity screen (enzyme assay) (Endotheliase-1 (ET1)): < 5%
B3: C9 IgG1 antibody (Fab C9 reformatted) (antibody, V domains shown)
VH: EVQLLESGGGLVQPGGSLRLSCAASGFTFSRYPMFWVRQAPGKGLEWVSYISSSGGFTGYADSVKGRFTISRDNSKNTLYLQMNSLRAEDTAVYYCARGGPRGNKYYFDYWGQGTLVTVSS
VL: QSVLTQPASVSGSPGQSITISCTGTSSDVGHYNYVSWYQQHPGKAPKVMIYDVSSRPSGVSDRFSGSKSGNTASLAISGLQAEDEADYYCSSYTSGDTLYVFGTGTKVTVLG

activity against protease in selectivity screen (enzyme assay) (MTSP-10): < 5%
activity against protease in selectivity screen (enzyme assay) (MTSP-7): < 5%
activity against protease in selectivity screen (enzyme assay) (MTSP-6): < 5%
activity against protease in selectivity screen (enzyme assay) (Trypsinogen-IV): < 5%
activity against protease in selectivity screen (enzyme assay) (Endotheliase-1 (ET1)): < 5%
B4: H10 IgG1 antibody (Fab H10 reformatted) (antibody, V domains shown)
VH: B3 VH with P33R, F35Y, Y50S, S53P, F57D, G59R
VL: not shown

activity against protease in selectivity screen (enzyme assay) (MTSP-10): < 5%
activity against protease in selectivity screen (enzyme assay) (MTSP-7): < 5%
activity against protease in selectivity screen (enzyme assay) (MTSP-6): < 5%
activity against protease in selectivity screen (enzyme assay) (Trypsinogen-IV): < 5%
activity against protease in selectivity screen (enzyme assay) (Endotheliase-1 (ET1)): < 5%
B6: F8 IgG1 antibody (Fab F8 reformatted) (antibody, V domains shown)
VH: B3 VH with P33H, F35W, Y50G, G55R, F57I, G59K
VL: DIQMTQSPGTLSLSPGERVTLSCRASQSVTSSDLAWYQQKPGQAPRLLISGASSRATGIPDRFSGSGSGTDFTLTISRLEPEDFAVYYCQQYGNSPGTFGQGTKVEIKR

activity against protease in selectivity screen (enzyme assay) (MTSP-10): < 5%
activity against protease in selectivity screen (enzyme assay) (MTSP-1): < 5%
activity against protease in selectivity screen (enzyme assay) (MTSP-7): < 5%
activity against protease in selectivity screen (enzyme assay) (MTSP-6): < 5%
activity against protease in selectivity screen (enzyme assay) (Trypsinogen-IV): < 5%
activity against protease in selectivity screen (enzyme assay) (Endotheliase-1 (ET1)): < 5%
B7: D5 IgG1 antibody (Fab D5 reformatted) (antibody, V domains shown)
VH: EVQLLESGGGLVQPGGSLRLSCAASGFTFSRYDMHWVRQAPGKGLEWVSSISSSGGYTAYADSVKGRFTISRDNSKNTLYLQMNSLRAEDTAVYYCARGARGTSQGYWGQGTLVTVSS
VL: DIQMTQSPGTLSLSPGERGTLSCRASQFVSYSYLAWYQQKPGQAPRLLIYGASSRAKGIPDRFSGSGSGTDFTLTITRLEPEDFAVYYCQQYVPSVPWTFGQGTKVEVKR

Second part, the binder before the results:

B1: D2 IgG1 antibody (Fab D2 reformatted) (antibody, V domains shown)
VH: B3 VH with P33R, F35Y, Y50S, S53P, F57D, G59R
VL: DIQMTQSPSSLSASVGDRVTITCRASQTIDNYLNWYQQKPGKAPKLVVYAASTLQTRVPSRFSGSGSGTDFTLTIDSLKPEDFATYFCQQGFSNPWTFGQGTTVAMIR
activity against protease in selectivity screen (enzyme assay) (MTSP-10): < 5%
activity against protease in selectivity screen (enzyme assay) (MTSP-1): < 5%
activity against protease in selectivity screen (enzyme assay) (MTSP-7): < 5%
activity against protease in selectivity screen (enzyme assay) (MTSP-6): < 5%
activity against protease in selectivity screen (enzyme assay) (Trypsinogen-IV): < 5%
activity against protease in selectivity screen (enzyme assay) (Endotheliase-1 (ET1)): < 5%

B2: A2 IgG1 antibody (Fab A2 reformatted) (antibody, V domains shown)
VH: B3 VH with P33R, F35Y, Y50S, S53P, F57D, G59R
VL: DIQMTQSPSFLSAFVGDRVTITCRASQDIRSDLAWYQQTPGKAPKLLIYAASTLKDGAPSRFSGSGSGTEFTLTISSLHPEDLATYYCQHLNGHPAFGPGTKVNIQR
activity against protease in selectivity screen (enzyme assay) (MTSP-10): < 5%
activity against protease in selectivity screen (enzyme assay) (MTSP-1): < 5%
activity against protease in selectivity screen (enzyme assay) (MTSP-7): < 5%
activity against protease in selectivity screen (enzyme assay) (MTSP-6): < 5%
activity against protease in selectivity screen (enzyme assay) (Trypsinogen-IV): < 5%
activity against protease in selectivity screen (enzyme assay) (Endotheliase-1 (ET1)): < 5%

B5: B5 IgG1 antibody (Fab B5 reformatted) (antibody, V domains shown)
VH: B3 VH with P33R, F35Y, Y50S, S53P, F57D, G59R
VL: SYELTQPPSVSVSLGQAANISCSGDRLGDKYTSWYQQQSGQSPVLVIYQDKKRPSGIPERFSGSSSGNTATLTISGAQAIDEAAYYCQAWATNVVFGAGTKLTVLG
activity against protease in selectivity screen (enzyme assay) (MTSP-10): < 5%
activity against protease in selectivity screen (enzyme assay) (MTSP-1): < 5%
activity against protease in selectivity screen (enzyme assay) (MTSP-7): < 5%
activity against protease in selectivity screen (enzyme assay) (MTSP-6): < 5%
activity against protease in selectivity screen (enzyme assay) (Trypsinogen-IV): < 5%
activity against protease in selectivity screen (enzyme assay) (Endotheliase-1 (ET1)): < 5%
